Patent US20100260765A1 (AstraZeneca / MedImmune, published 2010)

Legend:
[1] = molecular target: KDR endogenously expressed on human umbilical vein endothelial cells (HUVEC) (human, UniProt P35968 20-1356); assay: cell-based or functional assay
[2] = molecular target: T1, soluble KDR extracellular domain (ECD) (Calbiochem) (human, UniProt P35968 20-764); assay: High Antigen ELISA, KDR coat 500 ng/mL, supernatant 1:6075
T1 construct: extracellular domain; Bought protein; also called KDR-ECD; VEGF Receptor 2 D1-7, Cat. #676490
Method: (§1) ELISA plates were coated with a greater amount of KDR (at 500 ng/mL) in comparison with the Limited Antigen Quantitation assay described below. Sample containing antibody (Ab) was titrated on the KDR-coated ELISA plates and was incubated overnight at 4° C. to allow Ab binding to approach equilibrium. Titration of Ab in sample covered a dilution range of 1:25 to 1:18,225. A standard curve of KDR-specific antibody of known concentration was used to define the linear range of the assay. Data within the linear range were used to derive the relative concentration of KDR-specific Ab in each titrated sample. The high KDR concentration and the overnight incubation limited the effect of Ab affinity, allowing quantitation of the relative amount of KDR-specific Ab present in each sample.

[3] = molecular target: T1, soluble KDR extracellular domain (ECD) …; assay: High Antigen ELISA, KDR coat 500 ng/mL, supernatant 1:225
Method: as §1

[4] = molecular target: T1, soluble KDR extracellular domain (ECD) …; assay: Limited Antigen ELISA, KDR coat 25 ng/mL, supernatant 1:25
Method: (§2) Samples containing one concentration of antibody (Ab) (1:25 dilution) were incubated overnight to allow Ab binding to approach equilibrium. The low antigen concentration limited the effect of antibody concentration, allowing ranking of the antibodies based on their relative affinity.

[5] = molecular target: T1, soluble KDR extracellular domain (ECD) …; assay: Limited Antigen ELISA, KDR coat 12.5 ng/mL, supernatant 1:25
Method: as §2

[6] = molecular target: T1, soluble KDR extracellular domain (ECD) …; assay: Limited Antigen ELISA, KDR coat 6.25 ng/mL, supernatant 1:25
Method: as §2

[7] = molecular target: T1, soluble KDR extracellular domain (ECD) …; assay: Limited Antigen ELISA, KDR coat 3.125 ng/mL, supernatant 1:25
Method: as §2

[8] = molecular target: T1, soluble KDR extracellular domain (ECD) …; assay: High Antigen ELISA, KDR coat 500 ng/mL, supernatant 1:75
Method: as §1

[9] = molecular target: T1, soluble KDR extracellular domain (ECD) …; assay: High Antigen ELISA, KDR coat 500 ng/mL, supernatant 1:25
Method: as §1

[10] = molecular target: T1, soluble KDR extracellular domain (ECD) …; assay: High Antigen ELISA, KDR coat 500 ng/mL, supernatant 1:2025
Method: as §1

[11] = molecular target: T1, soluble KDR extracellular domain (ECD) …; assay: Limited Antigen ELISA, KDR coat 50 ng/mL, supernatant 1:25
Method: as §2

[12] = molecular target: T1, soluble KDR extracellular domain (ECD) …; assay: High Antigen ELISA, KDR coat 500 ng/mL, supernatant 1:675
Method: as §1

[13] = molecular target: T1, soluble KDR extracellular domain (ECD) …; assay: High Antigen ELISA, KDR coat 500 ng/mL, supernatant 1:18,225
Method: as §1

T1 sequence (P35968 20-764): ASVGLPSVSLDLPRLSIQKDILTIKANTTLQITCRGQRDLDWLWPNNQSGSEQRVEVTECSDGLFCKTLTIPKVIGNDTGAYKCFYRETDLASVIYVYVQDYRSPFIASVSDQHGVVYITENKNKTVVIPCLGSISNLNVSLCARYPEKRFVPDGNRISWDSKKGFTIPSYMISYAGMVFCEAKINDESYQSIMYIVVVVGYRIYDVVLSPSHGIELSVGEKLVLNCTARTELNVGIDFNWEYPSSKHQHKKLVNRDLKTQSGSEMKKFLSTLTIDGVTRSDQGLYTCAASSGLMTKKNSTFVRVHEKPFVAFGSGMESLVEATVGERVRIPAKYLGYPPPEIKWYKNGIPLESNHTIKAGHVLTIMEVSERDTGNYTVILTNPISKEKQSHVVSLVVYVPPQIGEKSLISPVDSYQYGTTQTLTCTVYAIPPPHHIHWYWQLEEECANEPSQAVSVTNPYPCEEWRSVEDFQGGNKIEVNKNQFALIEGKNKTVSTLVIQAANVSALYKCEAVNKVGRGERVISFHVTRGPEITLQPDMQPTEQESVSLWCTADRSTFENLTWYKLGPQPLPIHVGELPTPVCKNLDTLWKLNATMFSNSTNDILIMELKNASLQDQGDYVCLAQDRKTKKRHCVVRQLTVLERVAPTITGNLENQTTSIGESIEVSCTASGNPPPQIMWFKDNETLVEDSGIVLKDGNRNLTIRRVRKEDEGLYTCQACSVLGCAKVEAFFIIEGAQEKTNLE
KDR endogenously expressed on human umbilical vein endothelial cells (HUVEC), sequence (P35968 20-1356): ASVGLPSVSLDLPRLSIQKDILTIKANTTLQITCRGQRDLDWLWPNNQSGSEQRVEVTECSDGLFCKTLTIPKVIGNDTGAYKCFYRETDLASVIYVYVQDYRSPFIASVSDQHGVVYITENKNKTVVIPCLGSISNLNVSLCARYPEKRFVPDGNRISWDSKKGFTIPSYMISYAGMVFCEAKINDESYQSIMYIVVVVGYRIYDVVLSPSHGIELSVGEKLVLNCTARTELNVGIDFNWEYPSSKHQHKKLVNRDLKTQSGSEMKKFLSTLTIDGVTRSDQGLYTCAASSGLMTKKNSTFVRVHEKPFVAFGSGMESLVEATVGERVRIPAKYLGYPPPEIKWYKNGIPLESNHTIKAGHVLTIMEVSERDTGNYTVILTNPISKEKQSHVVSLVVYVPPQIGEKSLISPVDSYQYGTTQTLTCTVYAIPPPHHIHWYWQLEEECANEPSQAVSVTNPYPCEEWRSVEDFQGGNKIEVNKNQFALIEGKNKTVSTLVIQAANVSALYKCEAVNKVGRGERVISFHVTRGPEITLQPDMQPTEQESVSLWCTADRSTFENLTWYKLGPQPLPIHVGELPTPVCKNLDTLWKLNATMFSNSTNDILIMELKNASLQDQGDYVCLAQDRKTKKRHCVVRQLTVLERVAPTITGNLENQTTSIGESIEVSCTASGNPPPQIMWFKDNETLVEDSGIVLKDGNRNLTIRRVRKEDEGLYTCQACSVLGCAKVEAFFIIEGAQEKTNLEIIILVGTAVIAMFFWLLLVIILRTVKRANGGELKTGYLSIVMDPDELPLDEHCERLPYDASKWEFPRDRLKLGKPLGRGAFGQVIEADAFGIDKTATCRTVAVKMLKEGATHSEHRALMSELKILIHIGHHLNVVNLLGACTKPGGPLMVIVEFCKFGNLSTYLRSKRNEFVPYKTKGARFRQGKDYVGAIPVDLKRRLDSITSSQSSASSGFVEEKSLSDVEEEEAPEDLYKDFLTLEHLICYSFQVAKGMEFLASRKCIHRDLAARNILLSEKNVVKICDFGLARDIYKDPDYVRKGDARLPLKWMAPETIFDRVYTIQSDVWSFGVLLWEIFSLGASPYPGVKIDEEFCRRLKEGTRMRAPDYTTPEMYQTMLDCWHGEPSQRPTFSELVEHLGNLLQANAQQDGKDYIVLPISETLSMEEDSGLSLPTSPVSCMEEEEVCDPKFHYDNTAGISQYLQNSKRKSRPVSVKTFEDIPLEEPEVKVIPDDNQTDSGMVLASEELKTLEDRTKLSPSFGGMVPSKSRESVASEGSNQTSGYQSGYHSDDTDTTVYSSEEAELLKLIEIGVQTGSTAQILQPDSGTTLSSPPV

Binder	VEGF-E-mediated Survival % Inhibition (Average) [1] [%]	VEGF-E-mediated Survival % Inhibition (n = 1) [1] [%]	VEGF-E-mediated Survival % Inhibition (n = 2) [1] [%]	ELISA reading [2]	ELISA reading [3]	ELISA reading [4]	ELISA reading [5]	ELISA reading [6]	ELISA reading [7]	ELISA reading [8]	ELISA reading [9]	ELISA reading [10]	ELISA reading [11]	ELISA reading [12]	ELISA reading [13]
24B3 (antibody, V domains shown, Fully human mAb from XenoMouse hybridoma, tested as hybridoma supernatant) VH: EVQLVESGGGLVKPGGSLRLSCAASGFTFSTYSMNWVRQAPGKGLEWVSFISGRSSYIYYADSVKGRFTISRDNAKNSLYLQMNSLRAEDTAVYYCSKDDWFEELWGQGTLVTVSS VL: DIQMTQSPSSLSASVGDRVTITCRASQGIRSDLGWYQQKPGKAPKRLIYATSSLQSGVPSRFSGSGSGTEFTLTISSLQPEDFATYYCLQHNRYPWTFGQGTKVEIK	66	65	66	0.13	1.16	0.21	0.12	0.08	0.07	1.58	2.33	0.31	0.38	0.79	0.08
33B1 (antibody, V domains shown, Fully human mAb from XenoMouse hybridoma, tested as hybridoma supernatant) VH: EVQLVESGGGLVKPGGSLRLSCAASGFTFSSYTMNWVRQAPGKGLEWVSFIDSRSSYIYYADSVKGRFTISRDNAKNSLYLQMNSLRAEDTAVYYCSKDDWFEELWGQGTLVTVSS VL: DIQMTQSPSSLSASVGDRVTITCRASQGIRNDLGWYQQKPGKAPKRLIYATSSLQSGVPSRFSGSGSGTEFTLTISSLQPEDFATYYCLHHNSFPWTFGQGTKVEIK	67	66	68	0.25	1.62	0.2	0.12	0.08	0.08	2.32	2.71	0.55	0.23	1.1	0.2
24C9 (antibody, V domains shown, Fully human mAb from XenoMouse hybridoma, tested as hybridoma supernatant) VH: EVQLVESGGGLVKPGGSLRLSCAASGFTFSTYSMNWVRQAPGKGLEWVSFISGRSSYIYYADSVKGRFTISRDNAKNSLYLQMNSLRAEDTAVYYCSKDDWFEELWGQGTLVTVSS VL: DIQMTQSPSSLSASVGDRVTITCRASQGIRNDLGWYQQKPGKAPKRLIYATFSLQSGVPSRFSGSGSGTEFTLTISSLQPEDFATYYCLQHNRYPWTFGQGTKVEIK	72	72	72	0.2	2.14	0.23	0.13	0.09	0.07	2.48	3.67	0.54	0.5	1.45	0.11
32G7 (antibody, V domains shown, Fully human mAb from XenoMouse hybridoma, tested as hybridoma supernatant) VH: EVQLVESGGGLVKPGGSLRLSCAASGFTISSYSMNWVRQAPGKGLEWVSFISSRSNYIYYADSVKGRFTISRDNAKNSLYLQMNSLRAEDTAVYYCSKDDWFEELWGQGTLVTVSS VL: DIQMTQSPSSLSASVGDRVTITCRASQDIRNDLGWYQQKPGKAPKRLIYAASSLQSGVPSRFSGSGSGTEFTLTISSLQPEDFATYYCLQHNSFPWTFGQGTKVEIK	62	69	54	0.24	0.96	0.15	0.11	0.08	0.07	1.27	2.03	0.38	0.19	0.55	0.11
30A1 (antibody, V domains shown, Fully human mAb from XenoMouse hybridoma, tested as hybridoma supernatant) VH: QLQLQESGPGLVKPSETLSLTCTVSGGSISSPNYYWGWIRQPPGKGLEWIGTIYYSGNTFYNPSLKSRVTISVDTSKNQFSLKLSSVTAADTAVYYCATQQLVLYYFDFWGQGTLVTVSS VL: EIVLTQSPGTLSLSPGKRAALSCRASQSISSSYLAWYQQKPGQAPRLLIYGASSRATGIPDRFNGSGSGTDFTLTISRLEPEDFAVYYCQQLGSSITFGQGTRLEIK	58	58	59	1.58	6	0.87	0.5	0.27	0.15	4.78	4.52	3.37	1.77	4.28	1.11
27D10 (antibody, V domains shown, Fully human mAb from XenoMouse hybridoma, tested as hybridoma supernatant) VH: QLQLQESGPGLVKPSETLSLTCTVSGGSISSRSDYWGWIRQPPGKGLEWIGTIYYSGSTFYNPSLKSRVTISVDTSKNQFSLKLSSVTAADTAVYYCARQQLVLYYFDYWGQGTLVTVSS VL: not shown	57	50	64	0.89	3.95	0.54	0.25	0.14	0.12	4.02	4.09	1.87	1.36	3.79	0.41
29D4 (antibody, V domains shown, Fully human mAb from XenoMouse hybridoma, tested as hybridoma supernatant) VH: QLQLQESGPGLVKPSETLSLTCTVSGGSISSRSNYWGWIRQPPGKGLEWIGTIYYSGHTYYNPSLKSRVSISVDTSKNQFSLKLSSVTATDTALYYCARQQLVLYYFEYWGQGTLVTVSS VL: not shown	66	64	67	0.66	6	1.87	0.8	0.41	0.23	5.57	4.24	2.06	3.31	4.09	0.25
27A3 (antibody, V domains shown, Fully human mAb from XenoMouse hybridoma, tested as hybridoma supernatant) VH: QLQLQESGPGLVKPSETLSLTCTVSGGSISSRSDYWGWIRQPPGKGLEWIGTIYYSGDTYYNPSLKSRVTISVDTSKNQFSLKLSSVTAADTAVYYCARQQLVLYYFDYWGQGTLVTVSS VL: EIVLTQSPGTLSLSPGERATLSCRASQSVSSSYLAWYQQKPGQAPRLLIYATSNRATGIPDRFSGSGSGTDFTLTISRLEPEDFAVYYCQQHGSSPPLTFGGGTKVEIK	58	63	52	0.96	5.26	1.26	0.54	0.26	0.15	4.72	4.79	2.05	2.3	3.93	0.4
